# Source: the supplement of paper PMC9170038
# How the values were obtained:
# [1] = tested on: MS2 coat protein; assay: apparent KD of MS2 coat protein; higher = weaker reporter binding; details: Eterna round: R101
# Description: (§1)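 RNA-MaP: designed FMN/MS2 RNA switches (84 nt design region) are transcribed on-chip within common flanks and titrated with SNAP-549-labelled MS2 coat protein (about 1-3000 nM) in 100 mM Tris pH 7.5, 80 mM KCl, 4 mM MgCl2, without or with 200 uM FMN. Median apparent KD per design; activation ratio = KD,OFF / KD,ON.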
# [2] = tested on: MS2 coat protein; assay: apparent KD of MS2 coat protein; designed switch direction (-1 OFF switch, 1 ON switch): 1; higher = weaker reporter binding; details: Eterna round: R98
# Description: as §1
# [3] = tested on: MS2 coat protein; assay: apparent KD of MS2 coat protein, switch ON state; designed switch direction (-1 OFF switch, 1 ON switch): 1; higher = weaker reporter binding; details: FMN input: 0 or 200 uM; Eterna round: R93 (includes R88 designs)
# Outline: (§2)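 Designed RNA switches were transcribed on-chip from Illumina sequencing clusters. SNAP-549-labelled MS2 coat protein was titrated onto them in twofold steps from 0.7 or 1.5 nM to 3 µM in 100 mM Tris-HCl pH 7.5, 80 mM KCl, 4 mM MgCl2, either without or with constant ligand. Apparent KD reflects the per-design median of normalised cluster binding-curve fits.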
# [4] = tested on: MS2 coat protein; assay: apparent KD of MS2 coat protein, switch OFF state (with FMN for OFF switches, without FMN for ON switches); designed switch direction (-1 OFF switch, 1 ON switch): 1; higher = weaker reporter binding; details: FMN input: 0 or 200 uM; Eterna round: R93 (includes R88 designs)
# Outline: as §2
Sequence,apparent KD of MS2 coat protein ([1]; input ligand: FMN 200 uM) [nM],apparent KD of MS2 coat protein ([1]; input ligand: none) [nM],also measured
AAAUAACUUGAAGGAUAUCAGGGUGCACCUCAGUAAAACUGAGGUGCACCCUGAGAAGGUCGAGGAUCACCCGACCUAAAUAAA [#SharedSequence SLExNG1: 6-2] (puzzle (switch architecture): Small Loop Exclusion NG 1),7.27,5.76,–
AAAUAACUUGAAGGAUAUCAGGGUGCACCUCAGUAAAACUGAGGUGCACCCUGAGAAGGUCGAGGAUCACCCGACCUAGUGAAA [#SharedSequence SLExNG1: 7-2] (puzzle (switch architecture): Small Loop Exclusion NG 1),7.19,6.8,–
AAAUAAUCCUUAGGAUAUGACUCCGAAACGGAGUCAGAAGGGAGGAUCACCCUCUUCAGCUCAGCGUCGAAAGACGCUGAGCAA [#SharedSequence ExNG1 - 22] (puzzle (switch architecture): Exclusion NG 1),200,72.8,–
ACACGUCGUGAGAAGGAGGAUCACCCUUUCGAAAGAAAGAGCCACCGUGAAAACGGUGGCAAAUUCUAGGAUAUCACGACGUGA [#SharedSequence - IExNG2: 2] (puzzle (switch architecture): Inverted Exclusion NG 2),363,230,–
ACAUACAUUCGAGGAUAUCGGUGAUUAAUUCUACGAGAAGGCGAUUUAAGAUAUAAUAUUUUAGACAUGAGGAUCACCCAUGUA [JR_SSNG1_Sub036],–,–,apparent KD of MS2 coat protein ([2]; input ligand: FMN 200 uM): 22.9 nM; apparent KD of MS2 coat protein ([2]; input ligand: none): 28.3 nM
AGACCUGCUCAGAAGGAGAGUGCGAGGCUGGAAACAGCCUCGAACUAGAAACCUAGAGGAUCACCCUAGGAUAUGAGCAGGUCA [#SharedSequence - IExNG2: 10] (puzzle (switch architecture): Inverted Exclusion NG 2),5.58,5.51,–
"AGGAGAAAUGUAGGAUAUGGGCGGGCGGACGGGCAAAGCGCGUCCGCCCGCCCAGAAGGACAUGAGGAUCACCCAUGUUUCCCU [Wow, my 5th design!] (puzzle (switch architecture): Small Loop Exclusion NG 1)",13,12.2,–
CCCGGUGACUAGAAGGCGCCACAUGAGGAUCACCCAUGUAUCAAAGACCGGUGAUUGCCGACGGGCGAGGAUAUAGGUGCGACG [EternaBot1154] (puzzle (switch architecture): Inverted Exclusion NG 2),–,8.19,–
CCGAUGCAAAUAAAACAUGAGGAUCACCCAUGUGAGUCUCAUGAGGAUAUGCAGGUCAAAGACUUGCAGAAGGCAUGGCGUCGG [Eli sng3 2.08],–,–,apparent KD of MS2 coat protein ([2]; input ligand: FMN 200 uM): 135 nM; apparent KD of MS2 coat protein ([2]; input ligand: none): 1370 nM
CCGAUUAGCACAGGAUAUGGGAGUUCGUAGCUCCCAGAAGGGUGAGCCAAUACAUGAGGAUCACCCAUGUGCGGUAGGUCAGGA [Energe],–,–,apparent KD of MS2 coat protein ([2]; input ligand: FMN 200 uM): 56 nM; apparent KD of MS2 coat protein ([2]; input ligand: none): 57.1 nM
CCUGUCGCAUGAGGAUAUGGUCAGCUUUGCUGACCAGAAGGCAUGUCAAUAGACAUGAGGAUCACCCAUGUAGUAAAGACAGGA [Mat - Same State NG 1 - JL Mod - D36],–,–,apparent KD of MS2 coat protein ([2]; input ligand: FMN 200 uM): 36.2 nM; apparent KD of MS2 coat protein ([2]; input ligand: none): 395 nM
CGGGAUAUGAAGGGCGAAAGCCCACAUGAGGAUCACCCAUGUAGAAGGCGGGCCGCAACGCGGCCCGAGGAUAUACAAUAUCCA [#my 7th design] (puzzle (switch architecture): Inverted Exclusion NG 3),13.1,9.05,–
CGUAGUCCGUAGAAGGGUGACAUGAGGAUCACCCAUGUGCGAGCGGAGGGAGUCAGCGGCUCGCCACAGGAUAUACGGAGCACG [Eniszabe] (puzzle (switch architecture): Inverted Same State NG 2),28.8,137,–
GACUGCAGGAUAACAACCUGCAGUCACUUCUGAGGAUCACCCAGAAGGGCUGAGGUAAUACCUCAGCAGGAUAUGGAGUGUAAA [#SharedSequence IExNG# - 8] (puzzle (switch architecture): Inverted Exclusion NG 3),70.1,21.9,–
GACUUGGCUACAUGAGGAUCACCCAUGUUUGACUGGAUCGAUUAGGAUAUAGUGAUUUGCAACAAUUAGAAGGGAUAUUUACGG [byesamestateseeyounextround#3],–,–,apparent KD of MS2 coat protein ([2]; input ligand: FMN 200 uM): 31.3 nM; apparent KD of MS2 coat protein ([2]; input ligand: none): 32.9 nM
GAUCCGAGCACAGGAUAUGUUAGAGAGGGUGAGACAGAAGGGUGCUCCGGUAAGGCCAAGCACAUGAGGAUCACCCAUGUACAU [Orbezaen],–,–,apparent KD of MS2 coat protein ([2]; input ligand: FMN 200 uM): 64.9 nM; apparent KD of MS2 coat protein ([2]; input ligand: none): 29.7 nM
GGAGAUACAUGAGGAUCACCCAUGUAGGAUAUAUAGUAUAUAUAUAUUGAAAGGUAUAUAUAUAUAUAGAAGGGCGUGCACACC [#LOL-18] (puzzle (switch architecture): Small Loop Exclusion NG 3),6.73,9.07,–
GGAGAUACAUGAGGAUCACCCAUGUAGGAUAUCGGGCCCGGGCCCGGCGAAAGCCGGGCCCGGGCCGAGAAGGGCGUACACACC [#LOL-2] (puzzle (switch architecture): Small Loop Exclusion NG 3),5.79,7.3,–
GGAUAGGACAGAGGAUAUACGUGCUAGAGAUACUAGCAAAAUUUCCUCACAUGAGGAUCACCCAUGUAGAAGGCUGUCCUAUCG (puzzle (switch architecture): Exclusion NG 2),415,15.7,–
GGUCGACUUCAAGGAUAUGGACUGCAAAGCAGUCCAGAAGGUGAGGAUCACCCAUCUACGGUCAGGAAACUGACCGAUCGACCA [#SharedSequence - ExNG1-8] (puzzle (switch architecture): Exclusion NG 1),117,86.2,–
GGUGCACGCACAGGAUAUCCGGCGAAGCUCGUCGGAGAAGGGUGACAUGAGGAUCACCCAUGUACGUGCAGCCAAGUUUGAGAG [Laaar] (puzzle (switch architecture): Same State NG 1),47.6,26.8,–
GUCACGGUUAAUUCCGUGACGCGCAAUCCUUGAGGAUCACCCAAGGAUAUCGACGUCAAUGACGUCGAGAAGGUGGUUGAGCGC [#SharedSequence2] (puzzle (switch architecture): Exclusion NG 3),23.5,13.6,–
GUCAGCUCGUGAGGAUAUACAACACUGCUUCGGCAGUGUAUUAAGAUCACAUGAGGAUCACCCAUGUAGAAGGCACGAGCUGAU (puzzle (switch architecture): Exclusion NG 2),240,13.9,–
UAAAUAGAUCCUAGAGGAUCACCCUAGGAUAUCACCGUCGAGGUGCCAUAAUGGCACCUCGACGGUGAGAAGGAGGAAAAUAAA [#SharedSequence - SLExNG3: 5] (puzzle (switch architecture): Small Loop Exclusion NG 3),21.8,11.5,–
UAAUAUAUAUAGAAGGACAUGAGGAUCACCCAUGUCGCCGGGCCCGGGAAACCGGGCCCGGCCAUGUAGGAUAUAUAUAUAUUA [#This is a good prank 10] (puzzle (switch architecture): Inverted Exclusion NG 2),5.17,4.9,–
UAUCAUUACACGAAGGAUAUCGAUAAUUGAACAUGAGGAUCACCCAUGUGCCAUCCCUUACAGUUCGAGAAGGUCGAGGGUGAAG [JR_SS002_Sub707],–,–,apparent KD of MS2 coat protein [3]: 142 nM; apparent KD of MS2 coat protein [4]: 299 nM
UUACUCAUGUAAGGAUAUGCAGCCGAAACGGCUGCAGAAGGUACUAUAAUACAUGAGGAUCACCCAUGUAAAAUAUAUAAAGUU (puzzle (switch architecture): Same State NG 1),18.3,29.3,–
UUGGACGUCGUAGGAUAUGUAGGAUAUUCCUACAUGAGGAUCACCCAUGUUGACAUGGAAGAAGGACAGAAGGACGAUGUCCAU (puzzle (switch architecture): Same State NG 2),4.56,217,–
UUUAAUUAUACGAAGGAUAUCGAUAAUAAGACAUGAGGAUCACCCAUGUAAUAUUUUUCCAUAUUCGAGAAGGUCGCGGGUGAAC [JR_SS002_Sub601],–,–,apparent KD of MS2 coat protein [3]: 25 nM; apparent KD of MS2 coat protein [4]: 16.9 nM
